Substrate in data set [1]: CSCC[C@H](N)C(=O)O
The data set is described as follows: purified protein, by the assay type. The following applies: 25.0 °C.

Substrate in data set [2]: C/C=C/CC(N)C(=O)O
The data set is described as follows: ATP-PPi exchange assay: activation of methionine and methionine analogues by MetRS. In kind it is biochemical, E. coli. Particulars: 25.0 °C.

Substrate in data set [3]: C=CCCC(N)C(=O)O
Described as above. The data set is classed as biochemical, E. coli. The following applies: other: ATP-PPi exchange, purified truncated MetRS; 25.0 °C.

Substrate in data set [4]: CCCC[C@H](N)C(=O)O
The description is as above. In kind it is biochemical, E. coli. Particulars: other: ATP-PPi exchange, purified truncated MetRS; 25.0 °C.

Substrate in data set [5]: C#CCCC(N)C(=O)O
The description is as above. Particulars: other: ATP-PPi exchange, purified truncated MetRS; 25.0 °C. The data set is classed as biochemical, E. coli.

Setting [6] is: other: ATP-PPi exchange, purified truncated MetRS.
The mark [7] stands for this setting: other: Example I text, 75 nM enzyme.

For orientation: Km means the substrate concentration at which the rate is half of its maximum. In general, kcat refers to the maximal rate divided by the concentration of active sites.

B1: methionyl tRNA synthetase (MetRS) (Escherichia coli K-12) (protein)
chain: MTQVAKKILVTCALPYANGSIHLGHMLEHIQADVWVRYQRMRGHEVNFICADDAHGTPIMLKAQQLGITPEQMIGEMSQEHQTDFAGFNISYDNYHSTHSEENRQLSELIYSRLKENGFIKNRTISQLYDPEKGMFLPDRFVKGTCPKCKSPDQYGDNCEVCGATYSPTELIEPKSVVSGATPVMRDSEHFFFDLPSFSEMLQAWTRSGALQEQVANKMQEWFESGLQQWDISRDAPYFGFEIPNAPGKYFYVWLDAPIGYMGSFKNLCDKRGDSVSFDEYWKKDSTAELYHFIGKDIVYFHSLFWPAMLEGSNFRKPSNLFVHGYVTVNGAKMSKSRGTFIKASTWLNHFDADSLRYYYTAKLSSRIDDIDLNLEDFVQRVNADIVNKVVNLASRNAGFINKRFDGVLASELADPQLYKTFTDAAEVIGEAWESREFGKAVREIMALADLANRYVDEQAPWVVAKQEGRDADLQAICSMGINLFRVLMTYLKPVLPKLTERAEAFLNTELTWDGIQQPLLGHKVNPFKALYNRIDMRQVEALVEASK
notes: The fully active, truncated form of methionyl tRNA synthetase (MetRS) was purified from overnight cultures of JM101 cells carrying the plasmid pGG3; made in house; host or cells: E. coli JM101 carrying plasmid pGG3
As to B1, the Km in data set [1] (setting [6]) was 0.0243 ± 0.002 mM; in data set [2] (setting [6]), 15,675 ± 250 μM; in data set [3], 4.555 ± 0.2 mM; in data set [4], 4.12 ± 0.9 mM; in data set [5] it was 2.415 ± 0.17 mM. Moreover, the kcat was 13.3 s⁻¹ in data set [1] (setting [6]); 1.82 ± 0.6 s⁻¹ in data set [2] (setting [6]); 1.35 ± 0.1 s⁻¹ in data set [3]; 2.15 ± 0.6 s⁻¹ in data set [4]; 2.6 ± 0.3 s⁻¹ in data set [5]. In addition, the kcat/Km in data set [1] (setting [6]) is 547000 M⁻¹ s⁻¹; in data set [1] (setting [7]), 0.54 s^−1μM^−1; in data set [2] (setting [6]), 116 M⁻¹ s⁻¹; in data set [2] (setting [7]) it was 1.1×10^−4 s^−1μM^−1; in data set [3], 296 M⁻¹ s⁻¹; in data set [4], 522 M⁻¹ s⁻¹. Also, the kcat/Km in data set [5] came out at 1080 M⁻¹ s⁻¹.

The values above are taken from patent US7723070B2, “Overexpression of aminoacyl-tRNA synthetases for efficient production of engineered proteins containing amino acid analogues” (California Institute of Technology, priority 2000, dated 2010).
